The target in the assay is acetylcholine receptor (Homo sapiens, UniProt P02708). In words: SPR binding affinity (RU) of optimized 5mer/6mer/7mer peptides, Examples 6-7. The note with it: SPR, 6mer-2 Bottom sequence. In short, it runs like this: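 Peptides were tested at 10 μM by surface plasmon resonance against the receptor, with binding reported as response units. Library sequences were built from frequent (top) or infrequent (bottom) amino acid combinations in 5mer, 6mer-1 and 6mer-2 series.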
In general terms: Surface plasmon resonance follows binding to a sensor surface in real time, without labels.

Setting [1] is: Resonance Units, peptides tested at 10 μM.

Sequence of acetylcholine receptor (P02708 21-457): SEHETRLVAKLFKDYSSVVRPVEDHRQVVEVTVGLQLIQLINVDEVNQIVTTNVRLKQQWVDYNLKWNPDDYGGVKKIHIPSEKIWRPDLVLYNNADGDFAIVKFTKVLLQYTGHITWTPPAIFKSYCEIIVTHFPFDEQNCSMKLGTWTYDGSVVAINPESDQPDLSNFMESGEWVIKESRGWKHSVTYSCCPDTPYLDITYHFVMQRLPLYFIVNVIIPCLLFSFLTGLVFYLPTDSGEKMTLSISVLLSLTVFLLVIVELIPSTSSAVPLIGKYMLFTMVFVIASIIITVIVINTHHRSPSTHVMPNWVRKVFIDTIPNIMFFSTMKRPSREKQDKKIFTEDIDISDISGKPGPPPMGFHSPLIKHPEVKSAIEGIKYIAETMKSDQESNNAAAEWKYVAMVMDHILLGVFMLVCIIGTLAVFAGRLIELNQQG

Turning to 6mer-2-866 (RDNPKK), under setting [1], the Binding affinity turned out to be 24 Ru. In the case of 6mer-2-867 (KYWEKK), the Binding affinity under setting [1] is given as 32 Ru.

With 6mer-2-868 (RTPNRR), the Binding affinity under setting [1] stood at 30 Ru.

Consider 6mer-2-869 (RHDHKR), for which the Binding affinity under setting [1] is given as 18 Ru. The same measure, in the same setting: in the case of 6mer-2-870 (KMTEKK) it was 21 Ru; in that of 6mer-2-871 (REMPKR), 31 Ru; in that of 6mer-2-872 (KTHFRK), 28 Ru. The same measure, in the same setting: to 6mer-2-873 (KNWGRR) belongs 11 Ru; to 6mer-2-874 (KIHFRK), 33 Ru.

For the substance 6mer-2-875 (RIDHRK), the Binding affinity under setting [1] amounted to 13 Ru. Same read-out and setting: in the case of 6mer-2-876 (KEDNKR) it was 17 Ru; in that of 6mer-2-877 (KPPERR), 17 Ru; in that of 6mer-2-878 (KETVRR), 24 Ru. The same measure, in the same setting: in the case of 6mer-2-879 (RTMDRR) it was 19 Ru. Still for that read-out and setting: in the case of 6mer-2-880 (RTHHKK) it was 12 Ru; in that of 6mer-2-881 (KDTEKK), 33 Ru. Take 6mer-2-882 (RTPAKR): the Binding affinity under setting [1] was found to be 15 Ru. Same read-out and setting: to 6mer-2-883 (RTNEKR) belongs 22 Ru. With 6mer-2-884 (KMTMKK), the Binding affinity under setting [1] came out at 11 Ru. Still for that read-out and setting: in the case of 6mer-2-885 (KCMVRR) it was 17 Ru; in that of 6mer-2-886 (KTWVRR), 13 Ru. The same measure, in the same setting: to 6mer-2-887 (RCPKKR) belongs 18 Ru. The same measure, in the same setting: in the case of 6mer-2-888 (RIAKRK) it was 17 Ru. Take 6mer-2-889 (REWDKK): the Binding affinity under setting [1] was 12 Ru.

Consider 6mer-2-890 (RDNPKR), for which the Binding affinity under setting [1] is 30 Ru. The same measure, in the same setting: in the case of 6mer-2-891 (RTSIRK) it was 28 Ru; in that of 6mer-2-892 (KDENRK), 27 Ru. In the case of 6mer-2-893 (REHVRR), the Binding affinity under setting [1] is listed as 17 Ru. On the same count and under the same terms, in the case of 6mer-2-894 (RFHWRR) it was 22 Ru. The same measure, in the same setting: to 6mer-2-895 (KYMAKK) belongs 28 Ru. 6mer-2-896 (RTCARR): the Binding affinity under setting [1] is recorded as 30 Ru. For 6mer-2-897 (RPAHKK), the Binding affinity under setting [1] is 17 Ru. Still for that read-out and setting: in the case of 6mer-2-898 (KKKDKK) it was 16 Ru; in that of 6mer-2-899 (KKMVKR), 13 Ru. Consider 6mer-2-900 (RFSAKK), for which the Binding affinity under setting [1] worked out at 11 Ru.

For 6mer-2-901 (RYWDRK), under setting [1], the Binding affinity came to 34 Ru. Still for that read-out and setting: in the case of 6mer-2-902 (KPDVRK) it was 26 Ru; in that of 6mer-2-903 (KKNPKK), 40 Ru; in that of 6mer-2-904 (KCCFKK), 30 Ru. The same measure, in the same setting: in the case of 6mer-2-905 (RPKERR) it was 26 Ru. Still for that read-out and setting: in the case of 6mer-2-906 (KYCDKK) it was 40 Ru; in that of 6mer-2-907 (RTMNRR), 25 Ru. Consider 6mer-2-908 (KYKKKR), for which, under setting [1], the Binding affinity is 33 Ru. Take 6mer-2-909 (RCNPRR): under setting [1], the Binding affinity came out at 42 Ru. Still for that read-out and setting: to 6mer-2-910 (RHEHRR) belongs 21 Ru; to 6mer-2-911 (KMSGKR), 21 Ru; to 6mer-2-912 (RAPIRR), 27 Ru. Still for that read-out and setting: to 6mer-2-913 (KFKNRR) belongs 25 Ru; to 6mer-2-914 (KDDIKK), 25 Ru; to 6mer-2-915 (KNCWKR), 29 Ru. Still for that read-out and setting: in the case of 6mer-2-916 (KTTEKR) it was 22 Ru; in that of 6mer-2-917 (RFCWRK), 23 Ru; in that of 6mer-2-918 (KNWMRK), 35 Ru.

6mer-2-919 (KAKHKR): under setting [1], the Binding affinity is listed as 27 Ru. On to 6mer-2-920 (RMTIKK), for which, under setting [1], the Binding affinity came to 26 Ru. Same read-out and setting: to 6mer-2-921 (RPKAKK) belongs 22 Ru; to 6mer-2-922 (KDNVRR), 41 Ru; to 6mer-2-923 (RCCAKK), 33 Ru. On the same count and under the same terms, in the case of 6mer-2-924 (RFDHKK) it was 28 Ru; in that of 6mer-2-925 (RASVKR), 23 Ru; in that of 6mer-2-926 (RPTVKR), 31 Ru. Still for that read-out and setting: in the case of 6mer-2-927 (RFNPRK) it was 39 Ru. In the case of 6mer-2-928 (KFCIRR), the Binding affinity under setting [1] stood at 28 Ru.

Turning to 6mer-2-929 (KNHMRK), the Binding affinity under setting [1] is given as 26 Ru. Turning to 6mer-2-930 (RTWIKR), under setting [1], the Binding affinity turned out to be 37 Ru. Same read-out and setting: in the case of 6mer-2-931 (RYCFKR) it was 29 Ru. As to 6mer-2-932 (RIPWRR), under setting [1], the Binding affinity worked out at 35 Ru.

Turning to 6mer-2-933 (RYSMKR), the Binding affinity under setting [1] is reported as 34 Ru. Same read-out and setting: to 6mer-2-934 (KYKDRR) belongs 26 Ru; to 6mer-2-935 (KKCNKK), 22 Ru; to 6mer-2-936 (KPPAKK), 21 Ru. Still for that read-out and setting: in the case of 6mer-2-937 (RASHRR) it was 35 Ru; in that of 6mer-2-938 (RIEHKR), 40 Ru; in that of 6mer-2-939 (KKCARR), 22 Ru. Same read-out and setting: to 6mer-2-940 (RNENKK) belongs 41 Ru; to 6mer-2-941 (RDEDKR), 33 Ru. As to 6mer-2-942 (KTDKRK), the Binding affinity under setting [1] came to 22 Ru. The same measure, in the same setting: to 6mer-2-943 (KIDHRR) belongs 41 Ru. For 6mer-2-944 (KPEDKK), the Binding affinity under setting [1] came out at 35 Ru.

6mer-2-945 (KKCERK): the Binding affinity under setting [1] amounted to 42 Ru. The same measure, in the same setting: to 6mer-2-946 (KPCEKK) belongs 21 Ru; to 6mer-2-947 (KTNWRK), 41 Ru; to 6mer-2-948 (RPPFRR), 28 Ru. 6mer-2-949 (RPNARR): under setting [1], the Binding affinity came out at 39 Ru. On the same count and under the same terms, to 6mer-2-950 (KYNKRR) belongs 26 Ru.

For the substance 6mer-2-951 (RADEKK), under setting [1], the Binding affinity stood at 42 Ru. As to 6mer-2-952 (KYWGRR), the Binding affinity under setting [1] was 24 Ru.

Regarding 6mer-2-953 (KESVKK), the Binding affinity under setting [1] came out at 25 Ru. On the same count and under the same terms, in the case of 6mer-2-954 (KCTIRK) it was 32 Ru; in that of 6mer-2-955 (RMPERR), 29 Ru; in that of 6mer-2-956 (KFCWRR), 28 Ru. As to 6mer-2-957 (RDTHRR), under setting [1], the Binding affinity was determined as 40 Ru. The same measure, in the same setting: to 6mer-2-958 (KFKARK) belongs 28 Ru.

As for 6mer-2-959 (RTNARK), the Binding affinity under setting [1] is listed as 35 Ru.

As to 6mer-2-960 (RDCVKR), the Binding affinity under setting [1] is recorded as 29 Ru.

6mer-2-961 (KNTKKR): the Binding affinity under setting [1] stood at 21 Ru.

For the substance 6mer-2-962 (KKSNRK), the Binding affinity under setting [1] came out at 30 Ru.

For the substance 6mer-2-963 (KAKHRR), under setting [1], the Binding affinity came to 37 Ru. The same measure, in the same setting: to 6mer-2-964 (KCEDRK) belongs 41 Ru; to 6mer-2-965 (KPWFKR), 36 Ru. The same measure, in the same setting: to 6mer-2-966 (KEDAKR) belongs 41 Ru; to 6mer-2-967 (RTSNKK), 35 Ru; to 6mer-2-968 (RHWEKK), 39 Ru. With 6mer-2-969 (KATHKR), the Binding affinity under setting [1] came to 33 Ru.

In the case of 6mer-2-970 (KDDVRR), under setting [1], the Binding affinity amounted to 27 Ru. As for 6mer-2-971 (KEMFRK), the Binding affinity under setting [1] came to 29 Ru. In the case of 6mer-2-972 (KAMFRR), the Binding affinity under setting [1] was 38 Ru.

With 6mer-2-973 (KCPIKK), the Binding affinity under setting [1] stood at 41 Ru. The same measure, in the same setting: in the case of 6mer-2-974 (RFDDRR) it was 38 Ru; in that of 6mer-2-975 (KKTMKK), 38 Ru.

For the substance 6mer-2-976 (RTTGKK), under setting [1], the Binding affinity turned out to be 26 Ru. With 6mer-2-977 (REMKRK), under setting [1], the Binding affinity stood at 30 Ru.

In the case of 6mer-2-978 (KEPHRR), the Binding affinity under setting [1] was 28 Ru.

On to 6mer-2-979 (KKAFKK), for which the Binding affinity under setting [1] was 22 Ru. Still for that read-out and setting: in the case of 6mer-2-980 (KESGKR) it was 34 Ru; in that of 6mer-2-981 (RCEIRK), 32 Ru.

Consider 6mer-2-982 (RMHAKK), for which the Binding affinity under setting [1] is on record as 38 Ru.

Consider 6mer-2-983 (RTWHRR), for which the Binding affinity under setting [1] is on record as 37 Ru. 6mer-2-984 (KDMWKK): under setting [1], the Binding affinity was 43 Ru. Still for that read-out and setting: in the case of 6mer-2-985 (REMNKR) it was 34 Ru; in that of 6mer-2-986 (KNWARR), 27 Ru. Still for that read-out and setting: to 6mer-2-987 (RCHPKK) belongs 22 Ru.

Turning to 6mer-2-988 (KMCEKK), under setting [1], the Binding affinity was 41 Ru. On to 6mer-2-989 (KAHNKR), for which, under setting [1], the Binding affinity is 22 Ru. Same read-out and setting: in the case of 6mer-2-990 (RKKMKR) it was 41 Ru; in that of 6mer-2-991 (KCHFRR), 30 Ru; in that of 6mer-2-992 (RMHFRR), 33 Ru. Same read-out and setting: to 6mer-2-993 (RHDVKK) belongs 29 Ru; to 6mer-2-994 (KYCIKK), 41 Ru.

Turning to 6mer-2-995 (KFWEKK), the Binding affinity (peptides at 10 μM) is 38 Ru. 6mer-2-996 (RHDARK): the Binding affinity (peptides at 10 μM) amounted to 40 Ru. On the same count and under the same terms, in the case of 6mer-2-997 (KISFKK) it was 30 Ru; in that of 6mer-2-998 (KEMWKK), 43 Ru.

Values taken from patent publication US20250011363A1, “OPTIMIZED SHORTENED PEPTIDE THAT BINDS TO ACETYLCHOLINE RECEPTOR, AND USE THEREOF” (SKINMED CO., LTD., priority 2021, published 2025).
